Source: patent US20040073001A1 (Kyowa Kirin, published 2004)

T1: GFP-B9L (full-length), full-length B9L cDNA in pEGFP-C2 (plasmid pEGFP-C2B9L) (mouse, UniProt Q67FY2 1-1494)
T1 construct: expressed in mouse 3T3 cells; also called full-length B9L protein; not shown: green fluorescent protein (GFP) as encoded by vector pEGFP-C2 (Clontech)
T1 sequence: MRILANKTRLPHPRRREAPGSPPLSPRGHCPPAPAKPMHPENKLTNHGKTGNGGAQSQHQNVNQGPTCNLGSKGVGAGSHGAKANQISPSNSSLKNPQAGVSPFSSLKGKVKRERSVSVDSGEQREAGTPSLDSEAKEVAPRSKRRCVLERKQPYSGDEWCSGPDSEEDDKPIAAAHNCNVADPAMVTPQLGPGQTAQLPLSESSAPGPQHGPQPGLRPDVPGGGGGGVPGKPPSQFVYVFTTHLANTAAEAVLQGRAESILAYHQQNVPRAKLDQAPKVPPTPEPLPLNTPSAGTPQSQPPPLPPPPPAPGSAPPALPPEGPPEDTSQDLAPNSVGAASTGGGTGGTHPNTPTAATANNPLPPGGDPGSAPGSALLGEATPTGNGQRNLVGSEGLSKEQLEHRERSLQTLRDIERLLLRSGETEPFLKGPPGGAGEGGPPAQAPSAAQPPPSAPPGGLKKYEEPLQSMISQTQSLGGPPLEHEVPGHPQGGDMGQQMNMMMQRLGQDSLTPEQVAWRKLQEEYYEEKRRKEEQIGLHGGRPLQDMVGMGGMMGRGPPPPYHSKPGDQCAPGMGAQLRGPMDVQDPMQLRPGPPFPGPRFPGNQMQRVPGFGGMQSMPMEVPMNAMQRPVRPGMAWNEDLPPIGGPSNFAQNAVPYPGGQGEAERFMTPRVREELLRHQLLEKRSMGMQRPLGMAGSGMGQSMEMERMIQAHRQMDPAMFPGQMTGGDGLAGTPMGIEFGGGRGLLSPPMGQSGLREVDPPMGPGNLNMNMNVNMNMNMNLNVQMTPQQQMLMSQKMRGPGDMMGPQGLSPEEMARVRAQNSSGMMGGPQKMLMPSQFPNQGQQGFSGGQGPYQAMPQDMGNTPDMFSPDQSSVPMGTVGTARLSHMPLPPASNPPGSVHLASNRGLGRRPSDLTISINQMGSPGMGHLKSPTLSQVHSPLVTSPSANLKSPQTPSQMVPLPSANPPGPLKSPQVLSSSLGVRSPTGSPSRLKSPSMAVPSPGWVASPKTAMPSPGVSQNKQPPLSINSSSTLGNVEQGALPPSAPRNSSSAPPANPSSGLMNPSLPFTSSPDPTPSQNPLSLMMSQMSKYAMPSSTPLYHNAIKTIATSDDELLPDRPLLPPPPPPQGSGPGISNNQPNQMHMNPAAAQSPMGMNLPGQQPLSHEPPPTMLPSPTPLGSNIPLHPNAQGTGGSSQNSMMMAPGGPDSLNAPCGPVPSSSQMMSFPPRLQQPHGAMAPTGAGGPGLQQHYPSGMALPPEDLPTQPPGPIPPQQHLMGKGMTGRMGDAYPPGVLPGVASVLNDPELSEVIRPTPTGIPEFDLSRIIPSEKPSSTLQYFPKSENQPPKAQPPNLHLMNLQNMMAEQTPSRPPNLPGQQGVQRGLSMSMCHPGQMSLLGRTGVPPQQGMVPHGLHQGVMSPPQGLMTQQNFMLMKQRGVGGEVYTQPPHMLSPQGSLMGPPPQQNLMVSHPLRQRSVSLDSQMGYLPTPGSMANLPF

B1: GAL4 AD fusion of B9L partial fragment, residues 245-439 of SEQ ID NO: 2 (other, not shown: large carriers)
chain: LANTAAEAVLQGRAESILAYHQQNVPRAKLDQAPKVPPTPEPLPLNTPSAGTPQSQPPPLPPPPPAPGSAPPALPPEGPPEDTSQDLAPNSVGAASTGGGTGGTHPNTPTAATANNPLPPGGDPGSAPGSALLGEATPTGNGQRNLVGSEGLSKEQLEHRERSLQTLRDIERLLLRSGETEPFLKGPPGGAGEGG
notes: Two-hybrid prey
B2: GFP-B9L fusion protein (B9L cDNA fragment, SEQ ID NO: 4, in pEGFP-C2) (other)
chain: LANTAAEAVLQGRAESILAYHQQNVPRAKLDQAPKVPPTPEPLPLNTPSAGTPQSQPPPLPPPPPAPGSAPPALPPEGPPEDTSQDLAPNSVGAASTGGGTGGTHPNTPTAATANNPLPPGGDPGSAPGSALLGEATPTGNGQRNLVGSEGLSKEQLEHRERSLQTLRDIERLLLRSGETEPFLKGPPGGAGEGGPPAQAPSAAQPPPSAPPGGLKKYEEPLQSMISQTQSLGGPPLEHEVPGHPQGGDMGQQMNMMMQRLGQDSLTPEQVAWRKLQEEYYEEKRRKEEQIGLHGGRPLQDMVGMGGMMGRGPPPPYHSK
notes: Expressed in COS-7 and NIH 3T3 cells; not shown: green fluorescent protein (GFP) as encoded by vector pEGFP-C2 (Clontech)
B3: GAL4 AD fusion of B9L partial fragment, residues 440-564 of SEQ ID NO: 2 (other, not shown: large carriers)
chain: PPAQAPSAAQPPPSAPPGGLKKYEEPLQSMISQTQSLGGPPLEHEVPGHPQGGDMGQQMNMMMQRLGQDSLTPEQVAWRKLQEEYYEEKRRKEEQIGLHGGRPLQDMVGMGGMMGRGPPPPYHSK
notes: Two-hybrid prey
B4: GAL4 AD fusion of B9L partial fragment, residues 292-564 of SEQ ID NO: 2 (other, not shown: large carriers)
chain: PSAGTPQSQPPPLPPPPPAPGSAPPALPPEGPPEDTSQDLAPNSVGAASTGGGTGGTHPNTPTAATANNPLPPGGDPGSAPGSALLGEATPTGNGQRNLVGSEGLSKEQLEHRERSLQTLRDIERLLLRSGETEPFLKGPPGGAGEGGPPAQAPSAAQPPPSAPPGGLKKYEEPLQSMISQTQSLGGPPLEHEVPGHPQGGDMGQQMNMMMQRLGQDSLTPEQVAWRKLQEEYYEEKRRKEEQIGLHGGRPLQDMVGMGGMMGRGPPPPYHSK
notes: Two-hybrid prey
B5: GAL4 AD fusion of B9L partial fragment, residues 292-439 of SEQ ID NO: 2 (other, not shown: large carriers)
chain: PSAGTPQSQPPPLPPPPPAPGSAPPALPPEGPPEDTSQDLAPNSVGAASTGGGTGGTHPNTPTAATANNPLPPGGDPGSAPGSALLGEATPTGNGQRNLVGSEGLSKEQLEHRERSLQTLRDIERLLLRSGETEPFLKGPPGGAGEGG
notes: Two-hybrid prey; also called B9L fragment of residues 292-439
B6: Mutated mouse β-catenin S33Y (other, UniProt Q02248 1-781, looked up)
chain: MATQADLMELDMAMEPDRKAAVSHWQQQSYLDYGIHSGATTTAPSLSGKGNPEEEDVDTSQVLYEWEQGFSQSFTQEQVADIDGQYAMTRAQRVRAAMFPETLDEGMQIPSTQFDAAHPTNVQRLAEPSQMLKHAVVNLINYQDDAELATRAIPELTKLLNDEDQVVVNKAAVMVHQLSKKEASRHAIMRSPQMVSAIVRTMQNTNDVETARCTAGTLHNLSHHREGLLAIFKSGGIPALVKMLGSPVDSVLFYAITTLHNLLLHQEGAKMAVRLAGGLQKMVALLNKTNVKFLAITTDCLQILAYGNQESKLIILASGGPQALVNIMRTYTYEKLLWTTSRVLKVLSVCSSNKPAIVEAGGMQALGLHLTDPSQRLVQNCLWTLRNLSDAATKQEGMEGLLGTLVQLLGSDDINVVTCAAGILSNLTCNNYKNKMMVCQVGGIEALVRTVLRAGDREDITEPAICALRHLTSRHQEAEMAQNAVRLHYGLPVVVKLLHPPSHWPLIKATVGLIRNLALCPANHAPLREQGAIPRLVQLLVRAHQDTQRRTSMGGTQQQFVEGVRMEEIVEGCTGALHILARDVHNRIVIRGLNTIPLFVQLLYSPIENIQRVAAGVLCELAQDKEAAEAIEAEGATAPLTELLHSRNEGVATYAAAVLFRMSEDKPQDYKKRLSVELTSSLFRTEPMAWNETADLGLDIGAQGEALGYRQDDPSYRSFHSGGYGQDALGMDPMMEHEMGGHHPGADYPVDGLPDLGHAQDLMDGLPPGDSNQLAWFDTDL
notes: Expressed from pMKITneo in COS-7 or NIH 3T3 cells; also called S33Y β-catenin

Tests used:
[1] = target: T2, GAL4-β-catenin fusion protein (GAL4 BD fused with mouse β-catenin armadillo domain, residues 128 to 683) (yeast; mouse, UniProt P04386 1-147; Q02248 128-683); assay: yeast two-hybrid, β-galactosidase activity
T2 construct: Bait of the yeast two-hybrid system; also called mβ-catenin arm; β-catenin arm bait plasmid
Description: The respective bait plasmids were cotransfected with the B9L cDNA fragment-expressing clone obtained by the two-hybrid system in Example 1 into yeast HF7C strain, and the binding between the B9L protein and the respective β-catenin partial fragments were examined by the existence of β-galactosidase activity in the transformants. […] Thus, it was considered that the B9L protein binds to the N-terminal region of β-catenin arm (armadillo repeats 1-6).
In order to further examine which region of the B9L protein binds to the β-catenin arm, two-hybrid system was performed as follows. […] Each plasmid was cotransfected with the β-catenin arm bait plasmid prepared in Example 1 into yeast HF7C strain, and the binding of each B9L protein partial fragment and β-catenin arm was examined based on the presence or absence of β-galactosidase activity in the transformants. […] Thus, the B9L protein was indicated to bind to the β-catenin arm at the region of residues 292-439 in the amino acid sequence represented by SEQ ID NO: 2.

[2] = target: B6; assay: co-immunoprecipitation from COS-7 lysates with anti-GFP antibody, Western blotting with anti-β-catenin antibody
Description: The B9L cDNA fragment obtained in Example 1 was inserted into pEGFP-C2, green fluorescent protein (GFP) expression vector (Clontech), to construct an expression plasmid for GFP-B9L fusion protein (hereinafter abbreviated as GFP-B9L). Mutated mouse β-catenin S33Y cDNA wherein serine 33, the target site of GSK-3β-mediated phosphorylation, is substituted with tyrosine was subcloned into animal cell expression plasmid vector pMKITneo (Nakamura et al., Genes to cells 3: 395 (1998)) to construct an expression plasmid for S33Y β-catenin. These plasmids were transfected using LipofectAMINE (Life Technologies) into monkey kidney cell line COS-7 cells (ATCC: CRL-1651) for forced expression. After 24 hr, the cells were harvested to prepare cell lysates by adding buffer A containing 1% Triton X-100. The cell lysates were reacted with anti-GFP antibody or anti-β-catenin antibody at 4° C. for 1 hr to form an immune complex between GFP-B9L or S33Y β-catenin and the respective antibody, and then Protein G-Sepharose 4B (Amersham Pharmacia Biotech), which is capable of binding to IgG, was added to the reaction solution to adsorb the immune complex. The Protein G-Sepharose 4B was washed well with lysis buffer A, and SDS-PAGE sample buffer was added to elute the immune complex. […]

[3] = target: T1, GFP-B9L (full-length), full-length B9L …; assay: co-localisation in the nucleus of mouse 3T3 cells, fluorescence microscopy (indirect)
Method: The plasmids for the expression of GFP-B9L and S33Y β-catenin constructed in Example 3 were transfected alone or together into mouse NIH 3T3 cells using Effectene (QIAGEN), and were forcedly expressed. GFP expression vector pEGFP-C2, as a control, was also transfected into mouse NIH 3T3 cells and was forcedly expressed. After 24 hours, the cells were fixed with formaldehyde, stained with anti-β-catenin antibody, reacted with rhodamine isothiocyanate (RITC)-labeled anti-rabbit IgG antibody, and observed by fluorescence microscopy to detect S33Y β-catenin in the cell. GFP-B9L was directly detected by observation of GFP under fluorescence microscopy (with the use of-FITC filter).
The full-length B9L cDNA obtained in Example 1 was inserted into the ECORI-SalI site of pEGFP-C2 to prepare plasmid pEGFP-C2B9L for the expression in animal cells, cotransfected with S33Y β-catenin expression plasmid into mouse 3T3 cells and the plasmids were forcedly expressed as described above, and S33Y β-catenin was. detected in the cells. Similar to theB9L protein fragment obtained by the two hybrid system, both S33Y β-catenin and GFP-B9L (full-length) were localized in the nucleus. Thus, the full-length B9L protein was also confirmed to bind to β-catenin and localizes β-catenin into the nucleus.

| Binder | binding result [1] | further results |
| --- | --- | --- |
| B1 | binds | – |
| B2 | – | binding result [2]: binds |
| B3 | no binding | – |
| B4 | binds | – |
| B5 | binds | – |
| B6 | – | binding result [3]: binds |
| LANTAAEAVLQGRAESILAYHQQNVPRAKLDQAPKVPPTPEPLPLNT (other, not shown: large carriers, Two-hybrid prey) [GAL4 AD fusion of B9L partial fragment, residues 245-291 of SEQ ID NO: 2] | no binding | – |
